Values of other authors as cited in article PMC5744648.
pKd: −log10 of the molar value.

Tests used:
[1] = biological target: CMKLR1 (Chemerin1) (Homo sapiens) (UniProt Q99788); test: radioligand
[2] = biological target: GPR1 (Chemerin2) (Homo sapiens) (UniProt P46091); test: radioligand binding
[3] = biological target: CMKLR1 (Chemerin1) (Mus musculus) (UniProt P97468); test: radioligand binding
[4] = biological target: GPR1 (Chemerin2) (Homo sapiens) (UniProt P46091); test: radioligand

Sequence of GPR1 (Chemerin2) (Homo sapiens) (P46091 whole entry): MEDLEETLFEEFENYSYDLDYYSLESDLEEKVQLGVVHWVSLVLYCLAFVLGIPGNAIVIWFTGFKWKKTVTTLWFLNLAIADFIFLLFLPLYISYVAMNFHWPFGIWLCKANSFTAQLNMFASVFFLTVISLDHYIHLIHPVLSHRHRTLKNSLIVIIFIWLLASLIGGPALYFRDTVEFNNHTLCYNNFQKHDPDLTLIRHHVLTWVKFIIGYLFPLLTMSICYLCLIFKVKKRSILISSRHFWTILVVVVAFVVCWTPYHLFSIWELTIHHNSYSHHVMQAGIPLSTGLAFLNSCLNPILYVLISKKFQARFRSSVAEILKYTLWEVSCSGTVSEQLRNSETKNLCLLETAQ
Sequence of CMKLR1 (Chemerin1) (Homo sapiens) (Q99788 whole entry): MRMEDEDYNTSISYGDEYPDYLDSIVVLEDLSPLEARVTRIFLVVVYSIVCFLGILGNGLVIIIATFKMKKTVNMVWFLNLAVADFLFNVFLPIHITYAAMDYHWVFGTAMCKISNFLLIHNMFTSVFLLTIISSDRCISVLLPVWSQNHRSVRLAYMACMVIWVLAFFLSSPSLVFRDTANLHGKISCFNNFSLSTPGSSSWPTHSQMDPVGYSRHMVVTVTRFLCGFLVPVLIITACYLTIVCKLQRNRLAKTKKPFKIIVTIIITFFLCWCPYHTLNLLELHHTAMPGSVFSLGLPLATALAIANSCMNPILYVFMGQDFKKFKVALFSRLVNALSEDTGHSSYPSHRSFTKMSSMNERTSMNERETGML
Sequence of Chemerin 21-157 (Q99969 21-157): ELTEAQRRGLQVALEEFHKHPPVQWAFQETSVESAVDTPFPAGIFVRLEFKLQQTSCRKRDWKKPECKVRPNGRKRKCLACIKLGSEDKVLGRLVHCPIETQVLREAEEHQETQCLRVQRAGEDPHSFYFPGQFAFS
Sequence of Chemerin C9 peptide 149-157 (Q99969 whole entry, looked up, tested part not stated): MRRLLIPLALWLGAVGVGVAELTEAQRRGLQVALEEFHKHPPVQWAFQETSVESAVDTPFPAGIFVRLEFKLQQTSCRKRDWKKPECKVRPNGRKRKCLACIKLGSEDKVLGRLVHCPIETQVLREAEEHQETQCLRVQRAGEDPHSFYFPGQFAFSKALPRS
Sequence of Chemerin 21-148 (Q99969 21-148): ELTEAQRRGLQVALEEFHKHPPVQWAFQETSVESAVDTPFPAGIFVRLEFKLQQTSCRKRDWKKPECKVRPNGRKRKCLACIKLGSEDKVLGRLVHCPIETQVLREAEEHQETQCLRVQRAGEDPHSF
Sequence of CMKLR1 (Chemerin1) (Mus musculus) (P97468 whole entry): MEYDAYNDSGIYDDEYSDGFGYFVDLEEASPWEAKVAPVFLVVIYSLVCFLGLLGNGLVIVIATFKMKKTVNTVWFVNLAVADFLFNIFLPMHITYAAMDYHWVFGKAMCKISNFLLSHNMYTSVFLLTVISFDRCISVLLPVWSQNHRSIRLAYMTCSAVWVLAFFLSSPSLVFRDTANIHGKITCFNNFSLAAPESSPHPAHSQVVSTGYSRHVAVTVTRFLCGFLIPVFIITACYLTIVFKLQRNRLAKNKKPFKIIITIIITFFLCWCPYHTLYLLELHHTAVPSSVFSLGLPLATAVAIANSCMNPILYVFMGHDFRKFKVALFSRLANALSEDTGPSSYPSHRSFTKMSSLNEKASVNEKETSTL

In the case of Chemerin 21-157 (from UniProt Q99969), the pKd [1] is given as 9.06 and the pKd [2] is given as 9.68.
For “Tyr-[Phe149]-chemerin146-157 146-157 (from UniProt Q99969)”, the pKd [1] is given as 7.66.
In the case of Chemerin 21-148 (from UniProt Q99969), the pKd [3] is given as 8.92.
In the case of “Chemerin C9 peptide 149-157 (from UniProt Q99969)”, the pKd [4] is listed as 8.28.
